The data set is described as follows: OYE hydrogenation activity screen, NADPH oxidation at 340 nm. The class given is biochemical. The following applies: 1 mM substrate, 0.25 mM NADPH, 2.5 μg protein; cut-off 0.05 U/mg protein; ND = not detected. How it is done: 25 putative OYE genes (Table 1) were cloned based on the Pfam domain of the FMN oxidoreductase family PF00724. Purified OYEs were screened for hydrogenation activity against acrolein, 2-cyclohexn-1-one, cis,cis-muconic acid, trans,trans-muconic acid, and 2-hexendioic acid. Substrate specificity was measured spectrophotometrically in 96-well plates by following incubation for 20 min at room temperature in the anaerobic chamber. Buffers and reagents were also degassed and sparged with Ar. Reaction mixtures contained potassium phosphate (50 mM and pH 7.0), NaCl (10 mM), NADPH (0.25 mM), various substrates (1 mM) and protein (2.5 μg) in a final volume of 200 μL. Enzyme reactions were monitored by following the decrease in absorbance at 340 nm (ε340 nm=6,200/M·cm) as a measure of the conversion of the cofactor NADPH to NADP+.

B1: PSPH1370: OYE protein from Pseudomonas syringae pv. phaseolicola 1448A (protein)
chain: MSLLLEPYTLRQLTLRNRIAVSPMCQYSSVDGLANDWHLVHLGSRAVGGAGLVITEAMAVTPDGRITPEDLGLWNDEQIEPLQRITRFINAQGAVAGIQLAHAGRKASTWRPWLGKHGSISLNEGGWTPVGPSAIAFDPQHTAPVQLSETQIQELIKAFVDSARRALTAGFKVVEIHAAHGYLLHQFLSPLSNQRTDQYGGSFENRIRLTLQVTEAVRAVWPEELPLFVRVSATDWVEDGWNADETVELARRLKALGTDLIDVSSGGTSANAEIPVGPGYQTRFAERVRKESEIATGTVGMITDPAQAEHILRTGQADIILLARELLRDPYWPLRADEDLGGRLATWPAQYQRATHRDQPIHESDLRD
On to B1, for which the “Activity [U/mg protein] 2-cyclohexen-1-one” value came to 0.18 U/mg protein.

B2: NE2398: OYE protein from Nifrosomonas europaea ATCC 19718 (protein)
chain: MLFNPLQVGSLTLPNRILLAPLTRARADAGHMPNALMAEYYSQRATGGLLISECTMVAPGTSAFVNEPGIYNDAQIAAWRQVTDAVHAKGGRIFMQIWHAGRAAYPGAADGAPIVSSSATAIEGEIHTPQGKVPHAVPRPLTVDEIPGIVAAFAQGARNAIAAGFDGVEVHGANGYLIDQFLRDTPNQRTDAYGGSLENRARLLFEVLTAVTQAIGSERVGLRLSPLNSFNSMKDSDPLALIGFLADRLNAFKLAYLHVMRADFFGVQKADVMPVAREKYKGVLVGNMGYSADEAEAAIAEGRLDAVAFGTAFLANPDLPARIRAKAPLNAPDSNTFYAGGAKGYTDYPTLQLA
B2: the “Activity [U/mg protein] 2-cyclohexen-1-one” value is on record as 0.19 U/mg protein.

B3: PA2932: OYE protein from Pseudomonas aeruginosa PAO1 (protein)
chain: MSNLLLSPLAVGNLALRNRIVMAPMTRSRAQQPGDVPTALNALYYAQRAGAGLIVSEGTQISHLGQGYAYTPGIYSEAQLAGWRQVTEAVHAAGGLIAAQLWHVGRMSHRSLQAGGEAPIAPSPIQAKAQVFIADGQGGGSMAPADAPREMTLEDIRRVRDEFVRAARNALDAGFDLVELHGANGYLIDQFLASASNRRSDAYGGSLENRARFLLEIVDALVAAVGAERVGLRLSPWGTINDMHDDEPEAMTLYLAEALQRRGIAYLHLAEWEWSGGPAYPQGFRERLRERFRAPLIVCGNYDAERAEAILQAGLADAVAIGRPFIANPDLVERIRLGAPLAEANQARFYGGDAAGYTDYPTLGQSATA
B3: the “Activity [U/mg protein] 2-cyclohexen-1-one” value was 13 U/mg protein.

B4: PSPH1060: OYE protein from Pseudomonas syringae pv. phaseolicola 1448A (protein)
chain: MSVEALFTPFRLGSLELSSRVVMAPMTRSFSPGHVPNSKVIEYYRRRAAAGVGLIVTEGTTVNHKASNGYPNVPQFFGDAPLAGWRKVVEAVHAEGGKIVPQLWHVGAVRRPGTEPDGSVPAYGPMEKVKDGQVLVHGMSKQDIDDVVAAFAQAAVDAKAIGMDGVEIHGAHGYLIDQFFWEGSNQRSDEYGGSLAKRSRFAIELIKAVRVAVGADYPIIFRFSQWKQQDYTARLVQTPEALGEFLQPLADAGVDIFHCSTRRFWEPEFEGSDLNLAGWTRKLTGKPTITVGSVGLDGEFLQFMVNTDKVAQPASLENLLKRLGNDEFDLVAVGRALLVDPDWALKVREGREQDILPFSREALTTLV
Turning to B4, the “Activity [U/mg protein] 2-cyclohexen-1-one” value stood at 0.14 U/mg protein.

B5: PP0911: OYE protein from Pseudomonas putida KT2440 (protein)
chain: MTTLFDPIKLGDLQLPNRIIMAPLTRCRADEGRVPNALMAEYYVQRASAGLILSEATSVSPMGVGYPDTPGIWNDEQVRGWNNVTKAVHAAGGRIFLQLWHVGRISHPSYLNGELPVAPSAIQPKGHVSLVRPLSDYPTPRALETEEINDIVEAYRSGAENAKAAGFDGVEIHGANGYLLDQFLQSSTNQRTDRYGGSLENRARLLLEVTDAAIEVWGAQRVGVHLAPRADAHDMGDADRAETFTYVARELGKRGIAFICSREREADDSIGPLIKEAFGGPYIVNERFDKASANAALASGKADAVAFGVPFIANPDLPARLAADAPLNEAHPETFYGKGPVGYIDYPRL
As to B5, the “Activity [U/mg protein] 2-cyclohexen-1-one” value is 0.15 U/mg protein.

B6: LMO2471: OYE protein from Listeria monocytogenes EGD-e (protein)
chain: MSKLFSEYKLKDVTLKNRIVMSPMCMYSVENKDGIATDFHFAHYVSRAAGGTGLVILEATAVQEVGRISEFDLGLWNDEQVPALKKLVGGLHYHGAKAGIQLAHAGRKAVLPGEIVAPSAIAFDEKSDKPVELTKEAIKEVVADFKRAAYRAKEAGFDVIEIHAAHGYLIHQFLSPITNRREDNYGGPAGNRYKILSDIIKAVKEVWDGPIIVRVSATDYAHGGLQLEDHIPFAKWMKADGVELIDVSTGGLVNVAPPVFPGYQVPFADEIRRGAGIATGALGLITRGEQAEEILCNERADLIIVGRELLRNPYFAKDAAKQLGETIEAPKQYSRAWK
On to B6, for which the “Activity [U/mg protein] 2-cyclohexen-1-one” value is listed as 0.08 U/mg protein.

B7: PP1244: OYE protein from Pseudomonas putida KT2440 (protein)
chain: MSALFEPYTLKDVTLRNRIAIPPMCQYMAEDGMINDWHHVHLAGLARGGAGLLVVEATAVAPEGRITPGCAGIWSDAHAQAFVPVVQAIKAAGSVPGIQIAHAGRKASANRPWEGDDHIAADDARGWETIAPSAIAFGAHLPKVPREMTLDDIARVKQDFVDAARRARDAGFEWIELHFAHGYLGQSFFSEHSNKRTDAYGGSFDNRSRFLLETLAAVREVWPENLPLTARFGVLEYDGRDEQTLEESIELARRFKAGGLDLLSVSVGFTIPDTNIPWGPAFMGPIAERVRREAKLPVTSAWGFGTPQLAEAALQANQLDLVSVGRAHLADPHWAYFAAKELGVEKASWTLPAPYAHWLERYR
B7: the “Activity [U/mg protein] 2-cyclohexen-1-one” value is given as 0.25 U/mg protein and the “Activity [U/mg protein] acrolein” value turned out to be 0.06 U/mg protein.

B8: PP1466: OYE protein from Pseudomonas putida KT2440 (protein)
chain: MSLLLEPYTLRQLTLPNRIAVSPMCQYSAIDGLANDWHLVHLGCRAVGGAGLVISEAVAVTADGRITAEDLGLWNDDQIVPLQRITRFITAQGAVPGIQLAHAGRKASTYRPWLGKQGSVKLEDGGWQPVGPSKIAFDPQHTPPRELSKDEIQDVIDAFVASTERALKAGFKVVEIHAAHGYLLHQFLSPLSNQRRDEYGSCFENRIRLTLQVVEAVRKVWPAELPLFVRVSATDWVEDGWNPDETVELARRLRVLGVDLIDVSSGGTSVNAEIPTGPGYQTRFAERVRKEAEIATGTVGMITEPAQAEHILRTGQADVIFLARELLRDPYWPLHADDDLGGNKATWPAQYQRATSRANPIHESDLRD
With B8, the “Activity [U/mg protein] 2-cyclohexen-1-one” value came to 0.14 U/mg protein.

B9: PS4251: OYE protein from Pseudomonas syringae pv. tomato str. DC3000 (protein)
chain: MTTIFDPITLGDLQLPNRIILAPLTRCRADEGRVPNALMSEYYVQRASAGLILTEATSVTPMGVGYPDTPGIWSNDQVRGWSNITQAVHNAGGRIVLQLWHVGRISHPSYLNGETPVAPSAIAAQGHVSLMRPITPLPTPRALELAEIGDIVEAYRVGAENAKAAGFDGVEVHGANGYLLEQFLLTGSNQRTDQYGGSLENRARLLLEVTDAVIDVWGAGRVGVHLSPRFDMHNMSDENRAETFSYVAKELGKRGIAFICARERDAEDSLGPQLKKDFGGVYIANEKFTKDSANAWLAEGKADAFAFGVPYIANPDLPERLASDAPLNEAHPETFYGKGPVGYIDYPRL
As to B9, the “Activity [U/mg protein] 2-cyclohexen-1-one” value amounted to 0.09 U/mg protein.

B10: PA4356: OYE protein from Pseudomonas aeruginosa PAO1 (protein)
chain: MATLFDPIVLGDLELPNRIVMAPLTRCRADEGRVPNALMAEYYAQRADAGLILSEATAVTPMGVGYPDTPGIWSDDQVRGWSNVTKAVHAAGGRIFLQLWHVGRISDPLYLNGELPVAPSAIAAEGHVSLVRPKRPYVTPRALDTEEIADIVEAYRQGAERAKAAGFDGVEIHGANGYLLDQFLQDSTNKRTDRYGGSIENRARLLLEVTDAAISVWGAQRVGVHLAPRADSHDMGDSNRLETFSHVARELGKRGIAFICAREAQADDSIGVALKKAFGGPYIANEQFTLDSANAILAKGDADAVAFGVPFIANPDLVERLRQGAELNPPRPETFYTGGTEGYLDYPTLA
As for B10, the “Activity [U/mg protein] 2-cyclohexen-1-one” value is reported as “.15 U/mg protein”.

B11: PS1143: OYE protein from Pseudomonas syringae pv. tomato str. DC3000 (protein)
chain: MSAAALFTPFRLGGLELSSRVVMAPMTRSFSPGHVPNSKVIEYYRRRAAAGVGLIITEGTTVNHPASNGYPNVPQFFGDAPLAGWKKVVDAVHAEGGKIAPQLWHVGAVRRLGTEPDGSIPAYGPMEKVKDGQVLVHGMSKQDIDEVVAAFAQAAADAKAIGMDGVEIHGAHGYLVDQFFWEGSNQRSDEYGGSLANRSRFAIELIKAVRAAVGPDYPIIFRFSQWKQQDYSARLVQTPEALGEFVQPLSDAGVDIFHCSTRRFWEPEFEGSELNLAGWTRKLTGKPTITVGSVGLDGEFLQFMVNTEKVAQPASLENLLERLGKDEFDLVAVGRALLVDPDWAVKVREGREQDILPFSREALTTLV
In the case of B11, the “Activity [U/mg protein] 2-cyclohexen-1-one” value amounted to 0.18 U/mg protein.

B12: PS2358: OYE protein from Pseudomonas syringae pv. tomato str. DC3000 (protein)
chain: MSALFEPFKLKDVTLRNRIAIPPMCQYSAIDGVVNDWHHVHLASMARGGAGLLVVEATAVAPEGRITPGCTGIWNDEQAQAFVPIVKAIKDAGCVPGIQIAHAGRKASANRPWEGDDHIVASDSRGWDTIAPSAIAFGANLPKVPRAMTLDDIARVRQNFVDAARRARDAGFEWIELHFAHGYLGQSFFSEHSNQRTDEYGGSFDNRSRFLLETLAAVREVWPENLPLTARFGVLEYDGRDEQTLTESIELARRFKAGGLDLLSVSVGFSTPDANIPWGPAFMGPIAERVRREAAIPVTSAWGFGEPKLAEEAVKSGQLDLVSIGRAHLADPHWAYFAAKELGVEKSAWTLPAPYAHWLERYR
As to B12, the “Activity [U/mg protein] 2-cyclohexen-1-one” value was found to be 0.13 U/mg protein.
